According to patent US20180355050A1 (Ablynx, published 2018):

How the values were obtained:
[1] = molecular target: T1, human CD40L expressed on CHO cells (human, UniProt P29965 1-261); experiment: cell-based or functional assay
T1 sequence: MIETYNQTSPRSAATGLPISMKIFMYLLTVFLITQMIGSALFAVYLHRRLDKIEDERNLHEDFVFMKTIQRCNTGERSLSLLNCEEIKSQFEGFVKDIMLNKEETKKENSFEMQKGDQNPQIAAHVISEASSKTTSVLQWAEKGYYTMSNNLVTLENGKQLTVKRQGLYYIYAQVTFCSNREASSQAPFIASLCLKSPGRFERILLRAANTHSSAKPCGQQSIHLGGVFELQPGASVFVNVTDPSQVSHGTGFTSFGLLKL

[2] = molecular target: T2, recombinant human CD40L (human, UniProt P29965 108-261, limits assumed); experiment: FACS ligand competition, biotinylated human CD40L on human CD40 HEK cells
T2 construct: Bought soluble recombinant protein (R&D, HEK, 6420-CL/CF); also called hCD40L; human CD40L (HEK, R&D)
T2 sequence: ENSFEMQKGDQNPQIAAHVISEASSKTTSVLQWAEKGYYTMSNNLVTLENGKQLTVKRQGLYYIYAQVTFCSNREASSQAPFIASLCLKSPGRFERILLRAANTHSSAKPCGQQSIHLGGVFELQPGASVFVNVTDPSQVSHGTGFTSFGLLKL

[3] = molecular target: T3, recombinant mouse CD40L (mouse, UniProt P27548 112-260, limits assumed); experiment: SPR (ProteOn), immobilised recombinant mouse CD40L 3000-4000 RU; member of the lead panel
T3 construct: also called mouse CD40L (R&D NSO)
T3 sequence (looked up): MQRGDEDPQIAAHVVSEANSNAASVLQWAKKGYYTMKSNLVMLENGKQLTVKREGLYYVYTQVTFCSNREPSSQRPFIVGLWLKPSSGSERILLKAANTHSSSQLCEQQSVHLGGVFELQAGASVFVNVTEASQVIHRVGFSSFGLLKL
Experimental: To assess binding to mouse CD40L (UniProt accession number: P27548), ProteOn GLC Sensor Chips were coated with 3000-4000 RU of recombinant mouse CD40L (R&D NSO) in 10 mM acetate buffer pH5.5. Purified monovalent anti-CD40L Nanobodies in ProteOn running buffer: PBS/Tween (phosphate buffered saline, pH 7.4 with 0.005% Tween 20) were flown over the sensor chips at 100 nM. Processed curves were used for off-rate analysis based on the Langmuir dissociation model.

[4] = molecular target: T2, recombinant human CD40L; experiment: FACS ligand competition, biotinylated human CD40L on human CD40 HEK cells; * suboptimal curve fit
[5] = molecular target: T2, recombinant human CD40L; experiment: FACS ligand competition, biotinylated human CD40L on rhesus CD40 HEK cells
[6] = molecular target: T1, human CD40L expressed on CHO cells; experiment: cell-based or functional assay; remark: listed apart in the source
[7] = molecular target: T4, hRANKL (TNF11) (human, UniProt O14788 140-317, limits assumed); experiment: competition ELISA on coated human CD40L, fixed Nanobody, dilution series of competitor
T4 sequence (looked up): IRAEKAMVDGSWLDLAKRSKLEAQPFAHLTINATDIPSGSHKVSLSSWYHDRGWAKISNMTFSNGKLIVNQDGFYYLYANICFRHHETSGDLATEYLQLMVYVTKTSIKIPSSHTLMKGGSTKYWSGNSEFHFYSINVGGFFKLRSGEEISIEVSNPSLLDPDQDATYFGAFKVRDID
Description: (§1) The Basic Local Alignment Search Tool (BLAST) was used to identify the closest related protein in the human protein database. […] A fixed concentration of Nanobody was used together with a dilution series of competitor (TNFα, HVEM-L (TNF14) and hRANKL (TN F11); CD40L was used as positive control), starting at a 100-fold excess. The Nano bodies were detected with anti-FLAG-HRP (Sigma (A8592)).

[8] = molecular target: HVEM-L (TNF14) (human, UniProt O43557 74-240, limits assumed); experiment: as above
Description: as §1

[9] = molecular target: human TNFα (human, UniProt P01375 77-233); experiment: as above
Description: as §1

[10] = molecular target: T5, rat CD40L on transiently transfected HEK cells (rat, UniProt Q9Z2V2 1-260); experiment: FACS on HEK cells transiently transfected with rat CD40L
T5 construct: whole, on cells
T5 sequence (looked up): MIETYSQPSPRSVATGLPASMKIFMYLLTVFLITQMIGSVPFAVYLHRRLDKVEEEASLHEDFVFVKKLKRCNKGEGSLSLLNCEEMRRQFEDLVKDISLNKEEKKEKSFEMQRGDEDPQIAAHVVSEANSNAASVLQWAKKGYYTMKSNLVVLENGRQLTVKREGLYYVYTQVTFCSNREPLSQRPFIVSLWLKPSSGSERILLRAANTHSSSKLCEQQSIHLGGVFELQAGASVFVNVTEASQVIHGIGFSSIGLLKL
Experimental: Cross-reactivity to rat CD40L (UniProt accession numbers: Q9Z2V2 and Q9R254 (secondary)) was tested in FACS. Purified Nanobodies were analyzed on FACS for binding to rat CD40L. 2×10⁵ cells (transiently transfected rat CD40L HEK cells) were incubated with the purified Nanobodies in FACS buffer for 30 minutes at 4° C. Cells were washed 3×, re-suspended and incubated for 30 minutes at 4° C. Cells were washed again 3× and dead cells were stained with TOPRO3 (Molecular probes, T3605). Samples were analyzed on a FACSarray™ (BD Biosciences).

[11] = molecular target: T2, recombinant human CD40L; experiment: FACS ligand competition, biotinylated human CD40L on cyno CD40 HEK cells
Experimental: Cross-reactivity to cynomolgus CD40L (UniProt accession number: G7PG38) and rhesus CD40L (UniProt accession number: G7N4M5) was tested in a ligand competition assay. […] 2×10⁵ cells (transiently transfected HEK cells) were incubated with dilution series of the purified Nanobodies in FACS buffer for 30 minutes at 4° C. Cells were then washed 3× and finally resuspended in FACS buffer containing Streptavidin-PE (BD Pharmingen, #554061). This mixture was incubated for 30 minutes at 4° C. Cells were further handled as set out above.

Sequence of HVEM-L (TNF14) (O43557 74-240 limits assumed): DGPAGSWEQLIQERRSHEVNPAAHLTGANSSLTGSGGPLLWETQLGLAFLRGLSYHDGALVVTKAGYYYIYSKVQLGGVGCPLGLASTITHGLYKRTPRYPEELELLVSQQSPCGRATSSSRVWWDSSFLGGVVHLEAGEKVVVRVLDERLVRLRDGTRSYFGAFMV
Sequence of human TNFα (P01375 77-233 limits assumed): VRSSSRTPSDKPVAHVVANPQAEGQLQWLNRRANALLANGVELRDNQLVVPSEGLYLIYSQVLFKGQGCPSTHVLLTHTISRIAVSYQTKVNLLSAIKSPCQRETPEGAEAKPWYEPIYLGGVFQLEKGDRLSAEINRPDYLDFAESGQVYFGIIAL

IC50 (M), B-cell proliferation assay, +HSA [1]: 1.06e-09 M
% block (maximum observed effect) [2]: 98%
binding result [3]: no binding (tested: 100 nM)
IC50 [4]: 0.142 nM
% block (maximum observed effect) [5]: 87%
IC50 [5]: 12.4 nM
Average IC50 (M), B-cell proliferation assay [6]: 1.26e-09 M
binding result [10]: no binding
% block (maximum observed effect) [11]: 81%
IC50 [11]: 8.07 nM
B1: C0100029C10 (VHH)
VHH: EVQLVESGGGLVQPGGSLRLSCAASGFTLDYYALGWFRQAPGKEREGVSCISSTESSDGSTYYADSVKGRFTISRDSAKNTVYLQMNSLKPEDTAVYYCATDQTLFGVCRGIATPDPGFWGQGTLVTVSS
notes: Monovalent Nanobody; tag of the monovalent form not spelled out; also called C01000029C10
binding result [7]: no binding (tested: competitor from a 100-fold excess)
binding result [8]: no binding (tested: competitor from a 100-fold excess)
binding result [9]: no binding (tested: competitor from a 100-fold excess)
